In patent publication WO2020033925A2 (dated 2020):

Target: human BTN3A1 ectopically expressed on K32 cells (human, UniProt O00481 30-513)
Experiment: cell-based or functional assay

human BTN3A1 ectopically expressed on K32 cells, sequence (O00481 30-513 limits assumed, form in doubt): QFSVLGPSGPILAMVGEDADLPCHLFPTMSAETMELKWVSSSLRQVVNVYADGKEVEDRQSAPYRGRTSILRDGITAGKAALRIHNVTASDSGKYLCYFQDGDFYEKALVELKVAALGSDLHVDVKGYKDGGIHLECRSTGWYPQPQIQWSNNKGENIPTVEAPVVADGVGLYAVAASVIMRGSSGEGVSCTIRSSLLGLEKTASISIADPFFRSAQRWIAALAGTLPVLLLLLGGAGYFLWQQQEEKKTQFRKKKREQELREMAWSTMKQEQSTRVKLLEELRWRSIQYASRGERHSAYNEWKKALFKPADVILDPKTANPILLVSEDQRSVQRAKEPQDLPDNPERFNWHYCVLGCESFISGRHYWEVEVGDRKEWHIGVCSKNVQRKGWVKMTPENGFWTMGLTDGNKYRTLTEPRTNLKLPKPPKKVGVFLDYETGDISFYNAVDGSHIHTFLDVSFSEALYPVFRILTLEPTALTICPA

B1: anti-CD277 monoclonal antibody mAb1 (antibody, V domains shown)
VH: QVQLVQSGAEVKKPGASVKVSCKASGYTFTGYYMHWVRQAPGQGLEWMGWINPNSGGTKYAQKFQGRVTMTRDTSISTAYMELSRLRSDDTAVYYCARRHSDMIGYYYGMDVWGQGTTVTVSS
VL: DIQMTQSPSSVSASVGDRVTITCRASQGISSWLAWYQQKPGKAPKLLIYAASSLQSGVPSRFSGSGSGTDFTLTISSLQPEDFATYYCQQATDFPPTFGGGTKVEIK
  proliferation of gated CD4+ T cells within total PBMCs co-cultured with anti-CD3/anti-CD28 coated BTN-K32 cells (Figure 3A): ≥ 1.5 fold
  proliferation of gated CD8+ T cells within total PBMCs co-cultured with anti-CD3/anti-CD28 coated BTN-K32 cells (Figure 3C): ≥ 1.5 fold
  proliferation of purified CD4+ T cells stimulated with BTN-K32 cells (Figure 4A): ≥ 1.5 fold
  proliferation of purified CD8+ T cells stimulated with BTN-K32 cells (Figure 4C): ≥ 2 fold
  release of IFN-g from purified CD4+ T cells stimulated with BTN-K32 cells (ELISA, Figure 5A): > 2 fold
  release of IFN-g from purified CD8+ T cells stimulated with BTN-K32 cells (ELISA, Figure 5C): ~1300 fold
